Experimental data as given in patent publication US20040214992A1, “Mutation induced optimization of receptor signal to noise ratio” (priority 2001, published 2004).
Changes are numbered by the printed parent chain. Blank lines part the entries; values can stand above or below the molecule they belong to.

Assays:
[1] = target: T1, CCR-3 receptor (Homo sapiens, UniProt P51677, Y235E); test: SRE-Luc + Gq5i luciferase reporter assay, wild-type or mutant CCR-3 receptor; format: cell-based; settings: basal activity of mutant vs wild-type
T1 construct: expressed in transfected cells; host or cells: HEK293 (inferred: assay 'as described above for the serotonin 2A receptor')
T1 sequence (P51677 1-355 Y235E): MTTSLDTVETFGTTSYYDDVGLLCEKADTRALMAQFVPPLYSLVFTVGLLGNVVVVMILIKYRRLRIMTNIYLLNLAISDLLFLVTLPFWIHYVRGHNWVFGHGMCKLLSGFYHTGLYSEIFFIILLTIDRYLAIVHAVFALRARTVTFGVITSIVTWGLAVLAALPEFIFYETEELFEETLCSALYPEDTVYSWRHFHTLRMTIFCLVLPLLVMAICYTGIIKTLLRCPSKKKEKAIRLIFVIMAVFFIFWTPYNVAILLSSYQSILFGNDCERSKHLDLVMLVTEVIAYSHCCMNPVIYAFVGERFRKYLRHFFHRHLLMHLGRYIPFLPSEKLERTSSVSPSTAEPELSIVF
Excerpt: (§1) Alternatively, Gαi coupling can also be measured using a positive assay (i.e., one that yields an increase in activity upon receptor activation), instead of a negative assay (i.e., one that yields a decrease in activity upon receptor activation). This assay provides a more detectable output signal and less interassay variation. In one such assay, a chimeric G protein (Gq5i, Broach and Thomer, Nature 384 (Suppl.):14-16 (1996)) that contains the entire Gαq protein having the five C-terminal amino acids from Gαi attached to the C-terminus of Gαq is used. This chimeric G protein is recognized as Gαi by Gαi coupled receptors, but switches the receptor induced signaling from Gαi to Gαq. This allows Gαi receptor coupling to be detected using a positive assay by use of a Gαq responsive SMS-Luc or SRE-Luc construct (Stratagene, La Jolla, Calif.). SMS and SRE preferably respond to Gαq mediated inositol and calcium production. Moreover, detection can be carried out in the absence of forskolin pre-stimulation of cells.
(§2) The basal activity of the Tyr235Glu mutant CCR-3 receptor was assessed using a luciferase assay. The CCR-3 receptor is a Gαi coupled receptor. Therefore, we chose to use the SRE-Luc+Gq5i reporter system, described in detail above (Broach and Thorner, supra), which switches the signaling pathway from Gαi to Gαq for reliable positive readout. The luciferase assay was carried out as described above for the serotonin 2A receptor.

[2] = tested on: CCR-3 receptor; test: as above; format: cell-based, human; settings: luciferase activity; for Ligand-stimulated Activity / Basal Activity: average of 5 experiments; for Basal Activity: no ligand
Excerpt: as §1, §2

basal activity compared to wild-type receptor (in words) [1]: decrease in basal activity
Stimulated/Basal Ratio [2]: 12
Ligand-stimulated Activity [2]: 151,445
Basal Activity [2]: 12,626
B1: Lys323Glu CCR-3: silenced mutant CCR-3 receptor with Tyr to Glu substitution at position 235 of SEQ ID NO: 2 (protein, UniProt P51677 1-355, looked up, variant Y235E)
C-C chemokine receptor type 3: T1 sequence (P51677 1-355 Y235E)

Stimulated/Basal Ratio [2]: 4.7
Ligand-stimulated Activity [2]: 157,389
Basal Activity [2]: 33,177
B2: wild-type CCR-3: wild-type CC chemokine receptor 3 (CCR-3), G protein-coupled receptor, SEQ ID NO: 2 (protein, UniProt P51677 1-355, looked up)
C-C chemokine receptor type 3: T1 sequence (P51677 1-355 Y235E) with E235Y
